Results reported in the supplement of paper PMC6379048.

How the values were obtained:
GPATCH3 = biological target: T1, GPATCH3 (UniProt Q96I76); experiment: EC50 of free RNA motif oligo competing protein binding to immobilised probe
T1 sequence: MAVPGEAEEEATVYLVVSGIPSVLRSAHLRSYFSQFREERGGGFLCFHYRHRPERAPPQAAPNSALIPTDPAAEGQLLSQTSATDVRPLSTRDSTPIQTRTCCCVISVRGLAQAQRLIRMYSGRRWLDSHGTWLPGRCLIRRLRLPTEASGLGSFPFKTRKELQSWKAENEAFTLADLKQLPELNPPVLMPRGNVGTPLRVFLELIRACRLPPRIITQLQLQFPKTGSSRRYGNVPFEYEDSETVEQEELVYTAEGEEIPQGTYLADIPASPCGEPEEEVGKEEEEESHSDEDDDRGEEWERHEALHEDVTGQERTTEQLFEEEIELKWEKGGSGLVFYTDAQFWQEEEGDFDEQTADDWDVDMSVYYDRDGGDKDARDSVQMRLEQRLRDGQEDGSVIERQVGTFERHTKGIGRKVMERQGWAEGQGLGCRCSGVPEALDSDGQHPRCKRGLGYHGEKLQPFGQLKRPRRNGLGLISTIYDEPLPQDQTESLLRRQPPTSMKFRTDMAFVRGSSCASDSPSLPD
How it was run: (§1)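 Kd was calculated as EC50, taken from a four-parameter log-logistic fit, multiplied by a protein-dependent depletion factor. The assay used HEK293-FT lysate (2.5 mg protein/well) pre-incubated for 1 h at 4°C with free RNA oligos (0 nM to 30 μM), then incubated for 30 min at 4°C with the matching oligos bound through a 5′-amino-C6 linker to NHS-Sepharose beads. Bound proteins were measured by label-free LC-MS/MS and normalised to the control.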

ISY1 = biological target: T2, ISY1 (UniProt Q9ULR0); experiment: as above
T2 sequence: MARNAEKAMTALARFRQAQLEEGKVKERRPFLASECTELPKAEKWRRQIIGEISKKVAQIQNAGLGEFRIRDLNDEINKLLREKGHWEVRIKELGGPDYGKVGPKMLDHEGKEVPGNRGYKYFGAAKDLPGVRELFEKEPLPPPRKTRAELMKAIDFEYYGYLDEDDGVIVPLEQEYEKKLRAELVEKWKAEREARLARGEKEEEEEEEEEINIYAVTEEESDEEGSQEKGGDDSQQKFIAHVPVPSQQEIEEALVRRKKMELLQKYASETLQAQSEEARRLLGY
How it was run: as §1

PABPC4 = PABPC4 (UniProt Q13310); experiment: as above
How it was run: as §1

LSM7 = biological target: T3, LSM7 (UniProt Q9UK45); experiment: Kd (EC50 corrected by depletion factor)
T3 sequence: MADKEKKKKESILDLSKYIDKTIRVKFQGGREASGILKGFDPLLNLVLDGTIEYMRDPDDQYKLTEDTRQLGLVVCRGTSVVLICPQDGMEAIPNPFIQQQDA
How it was run: as §1

MEX3B = biological target: T4, MEX3B (UniProt Q6ZN04); experiment: Kd (EC50 corrected by depletion factor)
T4 sequence: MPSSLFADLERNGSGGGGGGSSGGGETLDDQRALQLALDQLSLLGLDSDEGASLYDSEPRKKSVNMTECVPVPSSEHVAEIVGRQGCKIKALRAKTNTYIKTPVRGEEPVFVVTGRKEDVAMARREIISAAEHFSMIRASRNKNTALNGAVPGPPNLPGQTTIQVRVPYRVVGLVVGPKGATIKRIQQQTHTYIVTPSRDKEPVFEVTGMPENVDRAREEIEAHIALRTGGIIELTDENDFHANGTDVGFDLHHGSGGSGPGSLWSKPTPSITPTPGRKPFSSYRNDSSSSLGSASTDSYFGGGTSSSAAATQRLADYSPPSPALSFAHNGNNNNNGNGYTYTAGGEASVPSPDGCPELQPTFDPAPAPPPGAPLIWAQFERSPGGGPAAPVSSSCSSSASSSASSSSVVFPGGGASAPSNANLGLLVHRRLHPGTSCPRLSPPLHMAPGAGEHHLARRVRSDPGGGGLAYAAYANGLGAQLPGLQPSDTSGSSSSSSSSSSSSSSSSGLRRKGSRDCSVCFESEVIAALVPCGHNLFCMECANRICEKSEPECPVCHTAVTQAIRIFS
How it was run: as §1

RBMS2 = biological target: T5, RBMS2 (UniProt Q15434); experiment: Kd (EC50 corrected by depletion factor)
T5 sequence: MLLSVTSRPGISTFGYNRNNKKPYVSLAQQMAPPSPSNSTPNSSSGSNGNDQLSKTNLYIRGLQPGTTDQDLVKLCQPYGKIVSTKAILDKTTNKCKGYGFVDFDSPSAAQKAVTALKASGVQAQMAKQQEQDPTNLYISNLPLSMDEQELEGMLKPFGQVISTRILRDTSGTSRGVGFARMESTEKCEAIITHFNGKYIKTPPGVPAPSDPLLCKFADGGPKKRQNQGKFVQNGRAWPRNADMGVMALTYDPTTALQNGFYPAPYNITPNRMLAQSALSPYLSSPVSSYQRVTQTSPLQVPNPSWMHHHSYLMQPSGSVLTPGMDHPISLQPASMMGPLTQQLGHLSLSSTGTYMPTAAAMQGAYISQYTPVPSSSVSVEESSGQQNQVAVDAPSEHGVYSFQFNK
How it was run: as §1

ELAVL2 = ELAVL2 (UniProt Q12926); experiment: Kd (EC50 corrected by depletion factor)
How it was run: as §1

SRSF3 = biological target: T6, SRSF3 (UniProt P84103); experiment: Kd (EC50 corrected by depletion factor)
T6 sequence: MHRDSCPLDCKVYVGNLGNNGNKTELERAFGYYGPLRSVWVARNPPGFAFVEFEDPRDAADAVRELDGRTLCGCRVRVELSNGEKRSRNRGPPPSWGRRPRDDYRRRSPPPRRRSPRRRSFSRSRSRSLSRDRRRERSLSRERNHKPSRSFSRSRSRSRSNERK
How it was run: as §1

Chain of ELAVL2 (Q12926 whole entry): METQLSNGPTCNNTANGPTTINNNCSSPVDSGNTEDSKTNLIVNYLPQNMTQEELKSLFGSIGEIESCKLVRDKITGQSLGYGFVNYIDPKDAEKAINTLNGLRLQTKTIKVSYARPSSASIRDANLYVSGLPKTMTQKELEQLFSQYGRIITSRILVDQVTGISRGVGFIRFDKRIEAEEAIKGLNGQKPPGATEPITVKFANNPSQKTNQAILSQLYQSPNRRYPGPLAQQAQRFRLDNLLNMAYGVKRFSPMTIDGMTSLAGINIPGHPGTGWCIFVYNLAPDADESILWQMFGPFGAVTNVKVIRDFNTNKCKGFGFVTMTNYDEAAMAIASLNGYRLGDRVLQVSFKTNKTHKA
Chain of PABPC4 (Q13310 whole entry): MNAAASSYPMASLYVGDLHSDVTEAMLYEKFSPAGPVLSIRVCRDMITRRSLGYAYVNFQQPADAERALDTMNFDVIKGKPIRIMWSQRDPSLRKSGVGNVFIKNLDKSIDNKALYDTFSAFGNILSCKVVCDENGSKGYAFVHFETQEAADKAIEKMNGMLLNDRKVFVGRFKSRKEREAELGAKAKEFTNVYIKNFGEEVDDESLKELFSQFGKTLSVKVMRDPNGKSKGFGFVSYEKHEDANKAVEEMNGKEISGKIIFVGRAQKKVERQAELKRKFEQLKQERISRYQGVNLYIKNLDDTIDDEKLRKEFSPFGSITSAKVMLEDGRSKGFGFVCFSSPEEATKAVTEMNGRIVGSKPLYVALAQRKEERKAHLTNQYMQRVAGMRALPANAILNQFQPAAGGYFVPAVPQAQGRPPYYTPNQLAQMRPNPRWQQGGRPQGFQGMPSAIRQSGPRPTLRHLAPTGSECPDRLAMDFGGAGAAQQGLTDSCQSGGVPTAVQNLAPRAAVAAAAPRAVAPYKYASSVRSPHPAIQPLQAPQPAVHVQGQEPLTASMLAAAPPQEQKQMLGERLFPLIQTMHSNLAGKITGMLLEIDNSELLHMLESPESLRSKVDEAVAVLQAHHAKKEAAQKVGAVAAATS

| Sequence | EC50 (GPATCH3) [µM] | EC50 (ISY1) [µM] | EC50 (PABPC4) [µM] | Kd (LSM7) [µM] | Kd (MEX3B) [µM] | Kd (RBMS2) [µM] | Kd (ELAVL2) [µM] | Kd (SRSF3) [µM] |
| --- | --- | --- | --- | --- | --- | --- | --- | --- |
| UAUUUAU | 0.326 | 0.724 | 13.6 | 0.27 | 0.22 | 0.274 | 3.67 |  |
| AAUAAA | 0.884 | 0.914 | 4.29 | 0.142 | 0.327 | 0.158 | 8.83 | 0.281 |
| CUGUCCU |  |  |  |  |  |  |  | 0.79 |
